Results on 1 molecule are retold here after patent publication US6174855A, “Pharmaceutical compositions comprising thrombin inhibitors and their use in the control of wound healing processes” (AstraZeneca AB, priority 1996, dated 2001).

The experiment concerns fibrin-related adhesions between the stomach and the liver, the intestines and the omentum. The experiment in a line: Acetic acid injury to the serosal surface of the rat stomach: formation of adhesions. Format: in vivo. To be noted: minipump in abdominal cavity, outlet free and open; wound covered by chitosan membrane; up to 10 days. Here is the method: The serosal surface of the stomach of an adult anaesthetised rat was exposed in an area of 7 mm diameter to 80% acetic acid over 60 seconds. After rinsing with buffered saline solution, an osmotic minipump (Alza 2001, volume about 220 μL; pumping rate about 1 μL/h; Alza Corp.; Palo Alto, Calif., USA; prefilled with a solution of the thrombin inhibitor melagatran, 2-100 μg/mL) was implanted into the peritoneal cavity, with the outlet of the pump kept open, and delivered its content into the abdominal cavity. The wounded area was covered by a chitosan membrane or, in an alternative experiment, a gel, having a diameter several millimeters larger than that of the injured area.
The serosal surface of the stomach of an adult, anaesthetised rat was exposed in an area of 7 mm diameter to 80% acetic acid over 60 seconds. After rinsing with buffered saline, the wounded area was covered by a chitosan membrane or, in an alternative experiment, a gel, having a diameter several millimeters larger than the injured area. An osmotic minipump (Alza 2001, volume about 220 μL; pumping rate about 1 μL/h; Alza Corp.; Palo Alto, Calif., USA; prefilled with a solution of the thrombin inhibitor melagatran, 2-100 μg/mL) was implanted subcutaneously, with the outlet of the pump kept open, delivering its content into the adjacent tissue. […]

B1: Actilyse: recombinant human tissue-plasminogen-activator; Boehringer Ingelheim (protein, UniProt P00750 36-562, looked up)
Tissue-type plasminogen …: SYQVICRDEKTQMIYQQHQSWLRPVLRSNRVEYCWCNSGRAQCHSVPVKSCSEPRCFNGGTCQQALYFSDFVCQCPEGFAGKCCEIDTRATCYEDQGISYRGTWSTAESGAECTNWNSSALAQKPYSGRRPDAIRLGLGNHNYCRNPDRDSKPWCYVFKAGKYSSEFCSTPACSEGNSDCYFGNGSAYRGTHSLTESGASCLPWNSMILIGKVYTAQNPSAQALGLGKHNYCRNPDGDAKPWCHVLKNRRLTWEYCDVPSCSTCGLRQYSQPQFRIKGGLFADIASHPWQAAIFAKHRRSPGERFLCGGILISSCWILSAAHCFQERFPPHHLTVILGRTYRVVPGEEEQKFEVEKYIVHKEFDDDTYDNDIALLQLKSDSSRCAQESSVVRTVCLPPADLQLPDWTECELSGYGKHEALSPFYSERLKEAHVRLYPSSRCTSQHLLNRTVTDNMLCAGDTRSGGPQANLHDACQGDSGGPLVCLNDGRMTLVGIISWGLGCGQKDVPGVYTKVTNYLDWIRDNMRP
For B1, the “fibrin network or strands of newly formed granulation tissue connecting the stomach with the liver, the intestines and the omentum” value is on record as “No fibrin network, nor any strands of newly formed granulation tissue, could be detected”.
